The source of these data is US20090117108A1 (published 2009).

For experiment [1], the target named is T1, purified CEA (carcinoembryonic antigen) (UniProt P06731 35-685, limits assumed).
T1 construct: Bought antigen; also called purified CEA (Fitzerald, German); purified CEA(R&D)
T1 sequence (looked up): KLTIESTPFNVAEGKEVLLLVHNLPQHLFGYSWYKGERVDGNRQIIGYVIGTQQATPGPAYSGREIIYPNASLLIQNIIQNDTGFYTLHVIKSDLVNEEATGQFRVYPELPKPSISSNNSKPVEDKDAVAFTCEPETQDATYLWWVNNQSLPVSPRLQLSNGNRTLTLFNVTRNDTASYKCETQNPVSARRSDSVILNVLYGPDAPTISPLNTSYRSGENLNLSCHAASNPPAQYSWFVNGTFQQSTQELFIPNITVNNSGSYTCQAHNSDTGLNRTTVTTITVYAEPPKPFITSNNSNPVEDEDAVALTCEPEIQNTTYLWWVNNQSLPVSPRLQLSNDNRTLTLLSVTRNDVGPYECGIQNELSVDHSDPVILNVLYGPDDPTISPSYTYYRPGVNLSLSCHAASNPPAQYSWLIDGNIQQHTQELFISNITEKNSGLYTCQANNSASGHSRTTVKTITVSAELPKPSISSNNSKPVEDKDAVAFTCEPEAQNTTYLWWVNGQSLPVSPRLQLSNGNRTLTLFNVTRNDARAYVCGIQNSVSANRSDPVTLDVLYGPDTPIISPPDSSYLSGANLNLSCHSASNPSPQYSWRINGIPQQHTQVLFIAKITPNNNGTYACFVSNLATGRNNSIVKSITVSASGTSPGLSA
The experiment can be described thus: ELISA, CEA coated at 1 ug/ml, CEA-scTsAb diluted from 10 ug/ml, detected by anti-c-myc antibody. In general terms: In an ELISA, binding on a coated surface is turned into a signal by an enzyme label.

The next experiment addresses T2, rhCD28-FC chimera (R&D) (human (printed as 'rh'), UniProt P10747 19-152).
T2 construct: Bought from R&D; Fc part of the bought chimera not given
The experiment can be described thus: ELISA, rhCD28-FC chimera coated at 1 ug/ml, CEA-scTsAb diluted from 10 ug/ml, detected by anti-c-myc antibody.

T2 sequence (P10747 19-152, change not shown): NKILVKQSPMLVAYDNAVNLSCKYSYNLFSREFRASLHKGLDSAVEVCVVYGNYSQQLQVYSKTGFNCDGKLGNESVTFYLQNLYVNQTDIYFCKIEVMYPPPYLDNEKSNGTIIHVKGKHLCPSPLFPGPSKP

B1: recombinant anti-CEA/CD3/CD28 single-chain tri-specific antibody CEA-scTsAb (other)
chain: MGLEQVQLQQSGAELMKPGASVKISCKATGYTFSDYWIEWVKQRPGHGLEWIGEILPGSGRTDYNERFKGKATFTGDVSSNTAYMKLSSLTSEDSAVYYCATGTTPFGYWGQGTLVTVSATSTPSHNSHQVPSAGGPTANSGSRDIVLTQSPASLAVSLGQRATISCRASQSVSTSSYTYMHWYQQKPGQPPKLLIKYASNLESGVPARFSGSGSGTDFTLNIHPVEEEDTAYYYCQHSWEIPRTFGGGTKLEIKEFNSTYRVVSVLTVLHQDWLNGKEYKCKSTEVKLVESGPELVKPGASMKISCKASGYSFTGYTMNWVKQSHGKNLEWMGLINPYKGVSTYNQKFKDKATLTVDKSSSTAYMELLSLTSEDSAVYYCARSGYYGDSDWYFDVWGAGTSVTVSSTSGGGGSGGGGSGGGGSSRDIQMTQTTSSLSASLGDRVTISCRASQDIRNYLNWYQQKPDGTVKLLIYYTSRLHSGVPSKFSGSGSGTDYSLTISNLEQEDIATYFCQQGNTLPWTFAGGTKLELKRAVDFQNALLVRYTKKVPQVSTPTPVEVSHMQVQLQESGPGLVKPSQTLSLTCTVSGFSLSDYGVHWVRQPPGKGLECLGVIWGGGTNYNSALMSRRVTSSDDTSKNQFSLKLSSVDTAVYYCARSYYYSMDYWGQGTLVTVSSGTEQKLISEEDLNGAAHHHHHHEQ
notes: Single linear tri-specific antibody expressed solubly in the E. coli cytoplasm and purified by DEAE flow-through to about 70-75% purity; also called anti-CEA/CD3/CD28 scTsAb
As to B1, the binding result (in experiment [1]; in the experiment with rhCD28-FC chimera (R&D)) was “binds” throughout.
